Measured values as given in the supplement of paper PMC10567573.

B1: TRIM43 (parent)
chain: RAQMIRNEYRKLHPVLHKEEKQHL
B2: TRIM39 (parent)
chain: CKACITRWWEDLERDFPCPVCRKT

Variants of: B1
Assay: protein stability index of a GFP-peptide fusion (GPS, HEK-293T) (PSI 1-6); higher = more stable
Conditions: c terminus: a fixed tail appended
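Also: lentivirally expressed fusions sorted by FACS into six bins by GFP to DsRed ratio, PSI derived from sequencing read proportions per bin multiplied by bin number.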

Row | Variant | protein stability index
1 | K18N | 3.2
2 | K18M | 2.6
3 | K18V | 3.26
4 | K18Q | 3.49
5 | K18G | 3.37
6 | K18P | 3.48
7 | K18S | 3.54
8 | K18R | 2.55
9 | K18F | 2.4
10 | K18I | 2.6
11 | K18H | 3.59
12 | K18W | 2.44
13 | K18L | 2.95
14 | K18A | 2.81
15 | K18C | 2.7
16 | K18D | 3.45
17 | K18E | 4.06
18 | K18Y | 3.09
19 | K18T | 3.06
20 | V15H | 2.98
21 | V15I | 3.09
22 | V15Q | 3.17
23 | V15E | 3.5
24 | V15W | 2.5

Row | Variant | protein stability index
25 | V15R | 3.37
26 | V15S | 2.94
27 | V15P | 3.32
28 | V15C | 3
29 | V15Y | 2.7
30 | V15L | 2.63
31 | V15K | 3.29
32 | V15T | 3.13
33 | V15M | 3.67
34 | V15A | 3.39
35 | V15N | 3.65
36 | V15D | 3.64
37 | V15G | 3.88
38 | H17I | 2.8
39 | H17G | 3.56
40 | H17V | 3.74
41 | H17T | 3.2
42 | H17D | 3.5
43 | H17C | 2.58
44 | H17N | 3.28
45 | H17M | 2.81
46 | H17S | 2.67
47 | H17Q | 3.07
48 | H17A | 2.37

Row | Variant | protein stability index
49 | H17Y | 2.96
50 | H17K | 4.15
51 | H17F | 2.53
52 | H17R | 3.79
53 | H17P | 3.42
54 | H17W | 2.8
55 | H17E | 4.14
56 | H17L | 2.93
57 | H23S | 3.45
58 | H23F | 2.58
59 | H23G | 3.63
60 | H23M | 3.39
61 | H23Y | 2.74
62 | H23L | 3.18
63 | H23C | 3.51
64 | H23Q | 3.35
65 | H23K | 3.33
66 | H23V | 3.17
67 | H23E | 3.81
68 | H23P | 3.09
69 | H23A | 3.08
70 | H23N | 3.13
71 | H23T | 3.23
72 | H23D | 4.45

Row | Variant | protein stability index
73 | H23R | 2.94
74 | H23W | 2.61
75 | H23I | 2.46
76 | H13W | 2.61
77 | H13S | 3.4
78 | H13Y | 2.83
79 | H13Q | 3.56
80 | H13R | 2.69
81 | H13T | 3.1
82 | H13V | 3.11
83 | L24G | 3.67
84 | L24S | 3.82
85 | L24A | 3.59
86 | L24C | 3.65
87 | L24T | 4.01
88 | L24Y | 3.34
89 | L24M | 3.45
90 | L24Q | 3.84
91 | L24K | 3.77
92 | L24H | 3.61
93 | L24P | 3.5
94 | L24V | 3.67
95 | L24E | 4.61
96 | L24W | 2.88

Row | Variant | protein stability index
97 | L24D | 4.51
98 | L24F | 2.36
99 | L24N | 4.01
100 | L24R | 3.06
101 | L24I | 3.19
102 | E19R | 2.93
103 | E19F | 1.98
104 | E19H | 2.34
105 | E19K | 3.41
106 | E19L | 2.07
107 | E19I | 1.73
108 | E19C | 2.71
109 | E19Y | 1.97
110 | E19N | 2.42
111 | E19G | 2.96
112 | E19V | 2.25
113 | E19S | 2.92
114 | E19T | 2.82
115 | E19P | 4.02
116 | E19W | 2.18
117 | E19Q | 3.22
118 | E19M | 2.23
119 | E19A | 2.17
120 | E19D | 3.02

Row | Variant | protein stability index
121 | E20I | 2.42
122 | E20L | 1.83
123 | E20F | 1.91
124 | E20V | 1.97
125 | E20K | 2.95
126 | E20Q | 2.76
127 | E20D | 3.38
128 | E20T | 2.83
129 | E20W | 1.66
130 | E20P | 2.09
131 | E20R | 1.83
132 | E20H | 2.63
133 | E20Y | 1.83
134 | E20M | 2.29
135 | E20C | 2.57
136 | E20N | 2.32
137 | E20S | 2.85
138 | E20G | 2.29
139 | E20A | 2.32
140 | Q22E | 3.82
141 | Q22S | 3.3
142 | Q22R | 3.62
143 | Q22L | 2.33
144 | Q22N | 3.07

Row | Variant | protein stability index
145 | Q22C | 2.54
146 | Q22W | 2
147 | Q22M | 2.3
148 | Q22H | 2.91
149 | Q22G | 2.34
150 | Q22T | 2.58
151 | Q22F | 1.86
152 | Q22D | 3.65
153 | Q22A | 2.89
154 | Q22P | 3.47
155 | Q22K | 2.99
156 | Q22Y | 2.71
157 | Q22I | 2.54
158 | Q22V | 2.64
159 | K21C | 3.18
160 | K21N | 2.77
161 | K21D | 3.82
162 | K21L | 2.4
163 | K21V | 3.37
164 | K21P | 2.97
165 | K21M | 2.54
166 | K21E | 4.63
167 | K21G | 2.42
168 | K21Q | 4.17

Row | Variant | protein stability index
169 | K21Y | 2.71
170 | K21S | 2.81
171 | K21T | 2.92
172 | K21H | 3.15
173 | K21I | 2.59
174 | K21A | 2.91
175 | K21R | 3.46
176 | K21F | 2.58
177 | K21W | 2.51
178 | L16D | 4.12
179 | L16R | 3.84
180 | L16F | 3.04
181 | L16V | 4.07
182 | L16T | 3.57
183 | L16N | 3.95
184 | L16P | 3.92
185 | L16Q | 3.85
186 | L16G | 3.1
187 | L16A | 3.52
188 | L16M | 3.94
189 | L16W | 2.3
190 | L16C | 2.71
191 | L16H | 3.2
192 | L16I | 3.31

Row | Variant | protein stability index
193 | L16Y | 2.52
194 | L16E | 4.04
195 | L16S | 3.65
196 | L16K | 3.85
197 | P14G | 3.11
198 | P14I | 2.44
199 | P14T | 2.77
200 | P14N | 2.64
201 | P14R | 3.23
202 | P14C | 2.42
203 | P14S | 2.04
204 | P14Q | 2.51
205 | P14H | 2.28
206 | P14M | 2.5
207 | P14D | 3.33
208 | P14L | 3.51
209 | P14A | 2.53
210 | P14F | 2.95
211 | P14E | 3.28
212 | P14W | 2.51
213 | P14Y | 2.27
214 | P14K | 2.7
215 | P14V | 2.59

Variants of: B2
Assay: as above
Conditions: c terminus: a fixed tail appended

Row | Variant | protein stability index
216 | P19V | 2.94
217 | P19D | 3.85
218 | P19Y | 2.27
219 | P19I | 2.3
220 | C4A | 1.72
221 | T6Q | 3.77
222 | T6C | 2.57
223 | T6M | 3.27
224 | T6R | 3.42
225 | T6W | 3.36
226 | C18R | 2.02
227 | C18W | 1.11
228 | C18E | 1.94
229 | C18M | 1.42
230 | C18D | 1.71
231 | C18I | 1.79
232 | V20W | 3.56
233 | V20C | 3.44
234 | V20H | 3.88
235 | V20T | 4.4
236 | V20K | 4.19
237 | V20D | 4.55
238 | V20R | 3.99
239 | D15H | 2.72

Row | Variant | protein stability index
240 | D15W | 2.72
241 | D15P | 3.87
242 | D15C | 2.09
243 | W9K | 4.86
244 | W9A | 4.23
245 | W9Y | 3.75
246 | W9P | 4.3
247 | D11V | 3.79
248 | D11W | 3.37
249 | D11T | 3.58
250 | D11Q | 3.48
251 | D11R | 3.4
252 | D11K | 3.5
253 | D11C | 3.38
254 | C21N | 2.39
255 | C21D | 2.57
256 | C21Q | 2.48
257 | C21M | 1.56
258 | C21H | 2.63
259 | P17E | 4.41
260 | P17V | 4.35
261 | R22H | 4.32
262 | R22K | 3.47
263 | R22I | 3.62

Row | Variant | protein stability index
264 | R22M | 3.72
265 | R22T | 3.72
266 | R22W | 2.53
267 | E13C | 2.82
268 | E13Q | 3.94
269 | E13Y | 3.79
270 | E13T | 3.13
271 | E13V | 2.98
272 | E13M | 2.95
273 | E13G | 3.79
274 | E13S | 3.63
275 | A3V | 4.17
276 | A3F | 3.17
277 | A3P | 2.48
278 | A3N | 4.16
279 | A3Y | 3.9
280 | A3L | 3.8
281 | W8H | 4.66
282 | W8M | 4.62
283 | W8I | 4.26
284 | W8P | 5.08
285 | W8A | 4.07
286 | K23V | 3.42
287 | K23E | 4.33

Row | Variant | protein stability index
288 | K23F | 2.57
289 | K23Y | 2.29
290 | K23R | 3.25
291 | C1T | 2.06
292 | C1G | 1.74
293 | C1I | 1.27
294 | C1A | 1.94
295 | C1V | 2.27
296 | C1S | 1.68
297 | C1K | 1.76
298 | E10R | 3.06
299 | E10T | 4.08
300 | E10L | 3.13
301 | E10P | 3.72
302 | E10V | 3.16
303 | E10C | 3.64
304 | E10Q | 3.56
305 | R7C | 3.8
306 | R7Q | 3.93
307 | R7N | 3.89
308 | R7L | 3.58
309 | R7K | 3.73
310 | R7T | 4.07
311 | I5L | 4.25

Row | Variant | protein stability index
312 | I5E | 4.6
313 | T24G | 4.24
314 | T24E | 3.98
315 | T24K | 3.83
316 | T24W | 3.02
317 | T24I | 3.57
318 | F16E | 4.66
319 | F16A | 4.32
320 | F16V | 4.04
321 | F16C | 2.32
322 | L12G | 4.11
323 | L12T | 4.45
324 | L12Q | 3.65
325 | L12C | 3.88
326 | R14N | 3.83
327 | R14M | 4.27
328 | R14I | 3.26
329 | R14H | 4.23
330 | R14G | 4.59
331 | R14K | 4.03
332 | K2C | 3.64
333 | K2P | 4.11
334 | K2D | 4.5
